# T1: 1xMBD-GFP (UniProt Q9Z2E2 1-75)
# T1 sequence: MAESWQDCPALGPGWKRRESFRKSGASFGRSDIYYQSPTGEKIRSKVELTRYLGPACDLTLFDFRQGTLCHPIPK
# Target: T1, 1xMBD-GFP
# Assay: SPR
row,Binder,Kd [µM]
1,"m_o_o*/o_o_o (dsDNA, strand 1 5mC9) DNA 1: GTAGTTTGCGGTCCGCTGCCCGACC DNA 2: GGGTCGGGCAGCGGACCGCAAA",13.1 ± 0.3
2,"o_o_m/o_o_o (dsDNA, strand 1 5mC17) DNA 1: TTTGCGGTCCGCTGCCCGACCC DNA 2: GGGTCGGGCAGCGGACCGCAAA",6.8 ± 0.1
3,"o_m_m/o_m_m (dsDNA, strand 1 5mC10,5mC17; strand 2 5mC5,5mC12) DNA 1: TTTGCGGTCCGCTGCCCGACCC DNA 2: GGGTCGGGCAGCGGACCGCAAA",0.139 ± 0.007
4,"o_o_o/o_m_o (dsDNA, strand 2 5mC12) DNA 1: TTTGCGGTCCGCTGCCCGACCC DNA 2: GGGTCGGGCAGCGGACCGCAAA",12 ± 1
5,"o_m_m/m_o_o (dsDNA, strand 1 5mC10,5mC17; strand 2 5mC17) DNA 1: TTTGCGGTCCGCTGCCCGACCC DNA 2: GGGTCGGGCAGCGGACCGCAAA",3.47 ± 0.05
6,"o_o_o/m_m_m (dsDNA, strand 2 5mC5,5mC12,5mC17) DNA 1: TTTGCGGTCCGCTGCCCGACCC DNA 2: GGGTCGGGCAGCGGACCGCAAA",4.6 ± 0.2
7,"o_o_m/m_o_m (dsDNA, strand 1 5mC17; strand 2 5mC5,5mC17) DNA 1: TTTGCGGTCCGCTGCCCGACCC DNA 2: GGGTCGGGCAGCGGACCGCAAA",0.179 ± 0.001
8,"m_o_o*/o_m_m (dsDNA, strand 1 5mC9; strand 2 5mC5,5mC12) DNA 1: GTAGTTTGCGGTCCGCTGCCCGACC DNA 2: GGGTCGGGCAGCGGACCGCAAA",3.74 ± 0.06
9,"o_m_o/o_m_m (dsDNA, strand 1 5mC10; strand 2 5mC5,5mC12) DNA 1: TTTGCGGTCCGCTGCCCGACCC DNA 2: GGGTCGGGCAGCGGACCGCAAA",0.252 ± 0.002
10,"o_o_m/o_m_m (dsDNA, strand 1 5mC17; strand 2 5mC5,5mC12) DNA 1: TTTGCGGTCCGCTGCCCGACCC DNA 2: GGGTCGGGCAGCGGACCGCAAA",0.116 ± 0.001
11,"m_o_o/o_o_o (dsDNA, strand 1 5mC5) DNA 1: TTTGCGGTCCGCTGCCCGACCC DNA 2: GGGTCGGGCAGCGGACCGCAAA",35 ± 1
12,"o_m_o/o_o_o (dsDNA, strand 1 5mC10) DNA 1: TTTGCGGTCCGCTGCCCGACCC DNA 2: GGGTCGGGCAGCGGACCGCAAA",10 ± 0.1
13,"o_o_o/m_o_m (dsDNA, strand 2 5mC5,5mC17) DNA 1: TTTGCGGTCCGCTGCCCGACCC DNA 2: GGGTCGGGCAGCGGACCGCAAA",5.7 ± 0.3
14,"o_o_m/m_o_o (dsDNA, strand 1 5mC17; strand 2 5mC17) DNA 1: TTTGCGGTCCGCTGCCCGACCC DNA 2: GGGTCGGGCAGCGGACCGCAAA",5.97 ± 0.08
15,"o_m_m/o_m_o (dsDNA, strand 1 5mC10,5mC17; strand 2 5mC12) DNA 1: TTTGCGGTCCGCTGCCCGACCC DNA 2: GGGTCGGGCAGCGGACCGCAAA",0.271 ± 0.005
16,o_o_o_o/o_o_o_o (dsDNA) DNA 1: GAAGTCAACAGGACGGACGCCGCGCAA DNA 2: CTCTTTCTTTGCGCGGCGTCCGTCCTGTTGACTTCCTCT,37 ± 2
17,"m_o_o_o/o_o_m_o (dsDNA, strand 1 5mC14; strand 2 5mC14) DNA 1: GAAGTCAACAGGACGGACGCCGCGCAA DNA 2: CTCTTTCTTTGCGCGGCGTCCGTCCTGTTGACTTCCTCT",3.51 ± 0.03
18,"o_m_o_o/o_o_m_o (dsDNA, strand 1 5mC18; strand 2 5mC14) DNA 1: GAAGTCAACAGGACGGACGCCGCGCAA DNA 2: CTCTTTCTTTGCGCGGCGTCCGTCCTGTTGACTTCCTCT",3.12 ± 0.04
19,"o_o_o_o/o_o_m_m (dsDNA, strand 2 5mC12,5mC14) DNA 1: GAAGTCAACAGGACGGACGCCGCGCAA DNA 2: CTCTTTCTTTGCGCGGCGTCCGTCCTGTTGACTTCCTCT",4.5 ± 0.1
20,"o_o_m_o/o_o_o_o (dsDNA, strand 1 5mC21) DNA 1: GAAGTCAACAGGACGGACGCCGCGCAA DNA 2: CTCTTTCTTTGCGCGGCGTCCGTCCTGTTGACTTCCTCT",5.86 ± 0.09
21,"o_o_o_m/o_m_m_o (dsDNA, strand 1 5mC23; strand 2 5mC14,5mC17) DNA 1: GAAGTCAACAGGACGGACGCCGCGCAA DNA 2: CTCTTTCTTTGCGCGGCGTCCGTCCTGTTGACTTCCTCT",1.94 ± 0.02
22,"o_o_o_m/o_o_o_o (dsDNA, strand 1 5mC23) DNA 1: GAAGTCAACAGGACGGACGCCGCGCAA DNA 2: CTCTTTCTTTGCGCGGCGTCCGTCCTGTTGACTTCCTCT",7.6 ± 0.2
23,"m_o_o_o/o_m_m_o (dsDNA, strand 1 5mC14; strand 2 5mC14,5mC17) DNA 1: GAAGTCAACAGGACGGACGCCGCGCAA DNA 2: CTCTTTCTTTGCGCGGCGTCCGTCCTGTTGACTTCCTCT",2.4 ± 0.09
24,"o_o_o_m/o_o_m_o (dsDNA, strand 1 5mC23; strand 2 5mC14) DNA 1: GAAGTCAACAGGACGGACGCCGCGCAA DNA 2: CTCTTTCTTTGCGCGGCGTCCGTCCTGTTGACTTCCTCT",2.65 ± 0.03

row,Binder,Kd [µM]
1,"o_m_o_o/o_m_m_o (dsDNA, strand 1 5mC18; strand 2 5mC14,5mC17) DNA 1: GAAGTCAACAGGACGGACGCCGCGCAA DNA 2: CTCTTTCTTTGCGCGGCGTCCGTCCTGTTGACTTCCTCT",0.315 ± 0.004
2,"m_o_o_o/o_o_m_m (dsDNA, strand 1 5mC14; strand 2 5mC12,5mC14) DNA 1: GAAGTCAACAGGACGGACGCCGCGCAA DNA 2: CTCTTTCTTTGCGCGGCGTCCGTCCTGTTGACTTCCTCT",3.11 ± 0.03
3,"o_o_m_o/o_m_m_o (dsDNA, strand 1 5mC21; strand 2 5mC14,5mC17) DNA 1: GAAGTCAACAGGACGGACGCCGCGCAA DNA 2: CTCTTTCTTTGCGCGGCGTCCGTCCTGTTGACTTCCTCT",0.158 ± 0.003
4,"o_m_o_o/o_o_o_o (dsDNA, strand 1 5mC18) DNA 1: GAAGTCAACAGGACGGACGCCGCGCAA DNA 2: CTCTTTCTTTGCGCGGCGTCCGTCCTGTTGACTTCCTCT",14.7 ± 0.4
5,"m_o_o_o/o_o_o_o (dsDNA, strand 1 5mC14) DNA 1: GAAGTCAACAGGACGGACGCCGCGCAA DNA 2: CTCTTTCTTTGCGCGGCGTCCGTCCTGTTGACTTCCTCT",16.8 ± 0.5
6,"o_o_m_o/o_o_m_o (dsDNA, strand 1 5mC21; strand 2 5mC14) DNA 1: GAAGTCAACAGGACGGACGCCGCGCAA DNA 2: CTCTTTCTTTGCGCGGCGTCCGTCCTGTTGACTTCCTCT",0.106 ± 0.001
7,"o_o_o_o/o_o_m_o (dsDNA, strand 2 5mC14) DNA 1: GAAGTCAACAGGACGGACGCCGCGCAA DNA 2: CTCTTTCTTTGCGCGGCGTCCGTCCTGTTGACTTCCTCT",3.66 ± 0.05
8,"o_o_o_o/o_m_m_o (dsDNA, strand 2 5mC14,5mC17) DNA 1: GAAGTCAACAGGACGGACGCCGCGCAA DNA 2: CTCTTTCTTTGCGCGGCGTCCGTCCTGTTGACTTCCTCT",3.19 ± 0.03
9,"m_o_o/m_m_m (dsDNA, strand 1 5mC5; strand 2 5mC5,5mC12,5mC17) DNA 1: TTTGCGGTCCGCTGCCCGACCC DNA 2: GGGTCGGGCAGCGGACCGCAAA",2.2 ± 0.02
10,o_o_o/o_o_o (dsDNA) DNA 1: TTTGCGGTCCGCTGCCCGACCC DNA 2: GGGTCGGGCAGCGGACCGCAAA,72 ± 5
11,"o_m_m/o_o_o (dsDNA, strand 1 5mC10,5mC17) DNA 1: TTTGCGGTCCGCTGCCCGACCC DNA 2: GGGTCGGGCAGCGGACCGCAAA",3.09 ± 0.02
12,"m_o_o/o_m_m (dsDNA, strand 1 5mC5; strand 2 5mC5,5mC12) DNA 1: TTTGCGGTCCGCTGCCCGACCC DNA 2: GGGTCGGGCAGCGGACCGCAAA",3.67 ± 0.03
13,"m_o_o*/o_m_o (dsDNA, strand 1 5mC9; strand 2 5mC12) DNA 1: GTAGTTTGCGGTCCGCTGCCCGACC DNA 2: GGGTCGGGCAGCGGACCGCAAA",5.41 ± 0.05
14,"o_o_o/o_m_m (dsDNA, strand 2 5mC5,5mC12) DNA 1: TTTGCGGTCCGCTGCCCGACCC DNA 2: GGGTCGGGCAGCGGACCGCAAA",4.28 ± 0.05
15,"o_m_o/o_m_o (dsDNA, strand 1 5mC10; strand 2 5mC12) DNA 1: TTTGCGGTCCGCTGCCCGACCC DNA 2: GGGTCGGGCAGCGGACCGCAAA",0.244 ± 0.002
16,"o_m_o/m_m_m (dsDNA, strand 1 5mC10; strand 2 5mC5,5mC12,5mC17) DNA 1: TTTGCGGTCCGCTGCCCGACCC DNA 2: GGGTCGGGCAGCGGACCGCAAA",0.398 ± 0.002
17,"m_o_o/o_m_o (dsDNA, strand 1 5mC5; strand 2 5mC12) DNA 1: TTTGCGGTCCGCTGCCCGACCC DNA 2: GGGTCGGGCAGCGGACCGCAAA",5.5 ± 0.9
18,"o_m_o/m_o_m (dsDNA, strand 1 5mC10; strand 2 5mC5,5mC17) DNA 1: TTTGCGGTCCGCTGCCCGACCC DNA 2: GGGTCGGGCAGCGGACCGCAAA",8.6 ± 0.1
19,"m_o_o*/m_m_m (dsDNA, strand 1 5mC9; strand 2 5mC5,5mC12,5mC17) DNA 1: GTAGTTTGCGGTCCGCTGCCCGACC DNA 2: GGGTCGGGCAGCGGACCGCAAA",0.534 ± 0.004
20,"m_o_o/m_o_m (dsDNA, strand 1 5mC5; strand 2 5mC5,5mC17) DNA 1: TTTGCGGTCCGCTGCCCGACCC DNA 2: GGGTCGGGCAGCGGACCGCAAA",2.08 ± 0.02
21,"o_o_m/o_m_o (dsDNA, strand 1 5mC17; strand 2 5mC12) DNA 1: TTTGCGGTCCGCTGCCCGACCC DNA 2: GGGTCGGGCAGCGGACCGCAAA",2.3 ± 0.06
22,"m_o_o*/m_o_m (dsDNA, strand 1 5mC9; strand 2 5mC5,5mC17) DNA 1: GTAGTTTGCGGTCCGCTGCCCGACC DNA 2: GGGTCGGGCAGCGGACCGCAAA",0.564 ± 0.004
23,"o_m_m/m_o_m (dsDNA, strand 1 5mC10,5mC17; strand 2 5mC5,5mC17) DNA 1: TTTGCGGTCCGCTGCCCGACCC DNA 2: GGGTCGGGCAGCGGACCGCAAA",0.169 ± 0.002
24,"o_m_m/m_m_m (dsDNA, strand 1 5mC10,5mC17; strand 2 5mC5,5mC12,5mC17) DNA 1: TTTGCGGTCCGCTGCCCGACCC DNA 2: GGGTCGGGCAGCGGACCGCAAA",0.181 ± 0.001

# Reference: PMC2946844
